Measurements reported in patent US20220275092A1 (F STAR THERAPEUTICS, published 2022).

Key:
mouse PD-L1 = biological target: T1, mouse PD-L1 (mouse, UniProt Q9EP73 19-239, limits assumed); assay: Biacore (SPR)
T1 construct: also called mPD-L1

mouse LAG-3 = biological target: T2, mouse LAG-3 (mouse, UniProt Q61790 24-442, limits assumed); assay: Biacore (SPR)
T2 construct: also called mLAG-3
T2 sequence (looked up): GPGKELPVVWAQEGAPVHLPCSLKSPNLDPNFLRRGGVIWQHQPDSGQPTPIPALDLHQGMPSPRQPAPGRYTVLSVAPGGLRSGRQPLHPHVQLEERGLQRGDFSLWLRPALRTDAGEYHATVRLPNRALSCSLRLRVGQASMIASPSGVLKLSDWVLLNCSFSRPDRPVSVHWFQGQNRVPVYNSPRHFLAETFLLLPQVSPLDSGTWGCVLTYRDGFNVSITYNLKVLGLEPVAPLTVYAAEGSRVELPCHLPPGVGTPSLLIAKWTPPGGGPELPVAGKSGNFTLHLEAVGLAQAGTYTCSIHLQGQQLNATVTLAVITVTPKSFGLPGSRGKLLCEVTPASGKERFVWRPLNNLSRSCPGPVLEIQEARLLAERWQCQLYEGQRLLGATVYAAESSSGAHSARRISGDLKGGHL

T1 sequence (Q9EP73 19-239 limits assumed): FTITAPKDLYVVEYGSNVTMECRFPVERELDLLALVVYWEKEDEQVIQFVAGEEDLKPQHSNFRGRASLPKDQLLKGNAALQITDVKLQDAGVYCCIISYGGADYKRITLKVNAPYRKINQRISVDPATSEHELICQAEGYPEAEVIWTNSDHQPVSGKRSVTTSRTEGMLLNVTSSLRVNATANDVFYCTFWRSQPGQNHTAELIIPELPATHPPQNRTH

Biacore binding affinity, fold higher than the binding of FS118 to hPD-L1 (mouse PD-L1): ~10 fold
Biacore binding affinity, fold lower than the binding of FS118 to hLAG-3 (mouse LAG-3): ~20 fold
B1: anti-mouse LAG-3/PD-L1 mAb^2 FS18-7-108-29/S1 (with LALA mutation) (bispecific antibody, V domains shown)
VH: not shown
VL: DIQMTQSPSSLSASVGDRVTITCRASQDVSTAVAWYQQKPGKAPKLLIYSASFLYSGVPSRFSGSGSGTDFTLTISSLQPEDFATYYCQQYLFTPPTFGQGTKVEIKR
notes: also called mouse surrogate mAb^2; mLAG-3/PD-L1
